Experimental data published in patent publication US20250042970A1 (AURINIA PHARMACEUTICALS, published 2025).
Read-outs that look alike come from different tables or passages of the source.

What was measured:
[1] = target: T1, BAv66-Ig (human, UniProt P01859-1 99-326 = IgG part); assay: BIACORE SPR
T1 construct: domain: Fc; also called Variant BAv66-Ig

[2] = target: T2, Variant BAv1-12-Ig (human, UniProt P01859-1 99-326 = IgG part); assay: BIACORE SPR
T2 construct: domain: Fc; also called Variant 1-12-Ig
Target sequence in this assay (P01859 other isoform, or with tags, fused parts or gaps mutant limits assumed): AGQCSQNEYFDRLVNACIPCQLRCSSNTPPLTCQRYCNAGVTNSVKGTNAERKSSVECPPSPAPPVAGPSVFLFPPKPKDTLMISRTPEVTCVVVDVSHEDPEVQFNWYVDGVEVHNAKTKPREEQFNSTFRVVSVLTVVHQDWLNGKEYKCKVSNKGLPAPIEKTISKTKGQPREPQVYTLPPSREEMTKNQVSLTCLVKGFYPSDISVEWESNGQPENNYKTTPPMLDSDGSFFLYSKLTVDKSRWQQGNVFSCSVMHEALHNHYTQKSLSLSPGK

[3] = target: T3, Variant BAv3-10-Ig (human, UniProt P01859-1 99-326 = IgG part); assay: BIACORE SPR
T3 construct: domain: Fc; also called Variant 3-10-Ig; BAv3-10-PIg18
Target sequence in this assay (P01859 other isoform, or with tags, fused parts or gaps mutant limits assumed): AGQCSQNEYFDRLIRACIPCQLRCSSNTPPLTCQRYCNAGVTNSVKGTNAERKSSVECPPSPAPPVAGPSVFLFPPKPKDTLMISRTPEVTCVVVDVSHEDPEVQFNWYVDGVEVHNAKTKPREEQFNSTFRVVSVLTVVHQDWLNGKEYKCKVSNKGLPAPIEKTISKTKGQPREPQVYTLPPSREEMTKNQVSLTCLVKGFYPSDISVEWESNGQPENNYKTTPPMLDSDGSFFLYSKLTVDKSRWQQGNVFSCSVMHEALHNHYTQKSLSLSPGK

[4] = target: T4, Variant BAv8-9-Ig (human, UniProt P01859-1 99-326 = IgG part); assay: BIACORE SPR
T4 construct: domain: Fc; also called Variant 8-9-Ig; BAv8-9-PIg18
Target sequence in this assay (P01859 other isoform, or with tags, fused parts or gaps mutant limits assumed): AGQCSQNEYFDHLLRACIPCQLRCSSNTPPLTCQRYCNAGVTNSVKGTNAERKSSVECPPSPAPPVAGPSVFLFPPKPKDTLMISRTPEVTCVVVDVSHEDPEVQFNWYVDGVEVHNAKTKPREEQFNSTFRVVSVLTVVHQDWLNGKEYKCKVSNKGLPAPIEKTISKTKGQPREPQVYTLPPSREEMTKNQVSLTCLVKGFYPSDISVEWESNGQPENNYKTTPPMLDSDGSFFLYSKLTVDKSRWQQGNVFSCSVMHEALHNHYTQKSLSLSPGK

[5] = target: T5, Variant BAv8-10-Ig (human, UniProt P01859-1 99-326 = IgG part); assay: BIACORE SPR
T5 construct: domain: Fc; also called Variant 8-10-Ig; BAv8-10-PIg18
Target sequence in this assay (P01859 other isoform, or with tags, fused parts or gaps mutant limits assumed): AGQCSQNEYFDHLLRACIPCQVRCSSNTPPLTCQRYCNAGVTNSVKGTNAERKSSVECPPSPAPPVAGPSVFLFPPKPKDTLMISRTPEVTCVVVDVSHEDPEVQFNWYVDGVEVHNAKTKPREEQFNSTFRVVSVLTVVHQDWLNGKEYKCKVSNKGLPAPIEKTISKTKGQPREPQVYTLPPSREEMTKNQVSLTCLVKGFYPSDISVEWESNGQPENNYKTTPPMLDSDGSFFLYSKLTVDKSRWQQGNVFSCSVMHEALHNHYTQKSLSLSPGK

[6] = target: T6, Variant BAv9-1-Ig (human, UniProt P01859-1 99-326 = IgG part); assay: BIACORE SPR
T6 construct: domain: Fc; also called Variant 9-1-Ig; BAv9-1-pIg18
Target sequence in this assay (P01859 other isoform, or with tags, fused parts or gaps mutant limits assumed): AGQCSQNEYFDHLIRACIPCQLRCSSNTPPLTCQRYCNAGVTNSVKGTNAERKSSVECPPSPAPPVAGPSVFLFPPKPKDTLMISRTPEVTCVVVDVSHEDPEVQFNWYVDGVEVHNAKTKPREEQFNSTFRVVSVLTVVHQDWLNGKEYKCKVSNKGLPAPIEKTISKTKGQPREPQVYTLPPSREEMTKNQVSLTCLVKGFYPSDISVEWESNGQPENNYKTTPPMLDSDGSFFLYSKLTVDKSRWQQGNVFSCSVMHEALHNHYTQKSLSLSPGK

[7] = target: T7, Variant BAv9-5-Ig (human, UniProt P01859-1 99-326 = IgG part); assay: BIACORE SPR
T7 construct: domain: Fc; also called Variant 9-5-Ig; BAv9-5-PIg18
Target sequence in this assay (P01859 other isoform, or with tags, fused parts or gaps mutant limits assumed): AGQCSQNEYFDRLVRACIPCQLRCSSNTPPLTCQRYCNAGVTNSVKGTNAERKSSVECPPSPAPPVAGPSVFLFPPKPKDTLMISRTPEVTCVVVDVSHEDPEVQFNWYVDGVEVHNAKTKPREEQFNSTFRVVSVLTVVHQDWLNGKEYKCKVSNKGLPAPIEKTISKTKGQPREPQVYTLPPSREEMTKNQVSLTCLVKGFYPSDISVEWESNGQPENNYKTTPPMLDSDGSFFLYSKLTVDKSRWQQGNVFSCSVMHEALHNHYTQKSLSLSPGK

[8] = target: T8, Variant BAv11-6-Ig (human, UniProt P01859-1 99-326 = IgG part); assay: BIACORE SPR
T8 construct: domain: Fc; also called Variant 11-6-Ig; BAv11-6-PIg18
Target sequence in this assay (P01859 other isoform, or with tags, fused parts or gaps mutant limits assumed): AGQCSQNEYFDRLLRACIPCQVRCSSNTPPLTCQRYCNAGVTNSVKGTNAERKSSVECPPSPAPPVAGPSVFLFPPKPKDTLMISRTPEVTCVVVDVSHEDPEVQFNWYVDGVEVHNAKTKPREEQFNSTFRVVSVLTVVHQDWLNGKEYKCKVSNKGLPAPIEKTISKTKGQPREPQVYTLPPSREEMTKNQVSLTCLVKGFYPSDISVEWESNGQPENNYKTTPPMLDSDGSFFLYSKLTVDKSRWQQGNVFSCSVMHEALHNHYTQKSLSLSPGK

[9] = target: T9, Variant 50238475-Ig (human, UniProt P01859-1 99-326 = IgG part); assay: BIACORE SPR
T9 construct: domain: Fc; also called Parent 9; Variant 50238475-PIg18
T9 sequence (P01859 other isoform, or with tags, fused parts or gaps mutant limits assumed): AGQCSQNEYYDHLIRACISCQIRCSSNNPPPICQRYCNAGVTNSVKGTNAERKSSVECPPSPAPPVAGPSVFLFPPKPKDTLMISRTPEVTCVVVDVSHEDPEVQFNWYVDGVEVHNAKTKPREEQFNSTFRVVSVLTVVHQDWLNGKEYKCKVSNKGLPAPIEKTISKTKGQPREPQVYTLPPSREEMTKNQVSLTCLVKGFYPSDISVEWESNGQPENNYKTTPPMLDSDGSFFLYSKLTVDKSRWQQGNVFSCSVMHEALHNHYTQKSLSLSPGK

[10] = target: T10, Variant 50240054-Ig (human, UniProt P01859-1 99-326 = IgG part); assay: BIACORE SPR
T10 construct: domain: Fc; also called Parent 2
T10 sequence (P01859 other isoform, or with tags, fused parts or gaps mutant limits assumed): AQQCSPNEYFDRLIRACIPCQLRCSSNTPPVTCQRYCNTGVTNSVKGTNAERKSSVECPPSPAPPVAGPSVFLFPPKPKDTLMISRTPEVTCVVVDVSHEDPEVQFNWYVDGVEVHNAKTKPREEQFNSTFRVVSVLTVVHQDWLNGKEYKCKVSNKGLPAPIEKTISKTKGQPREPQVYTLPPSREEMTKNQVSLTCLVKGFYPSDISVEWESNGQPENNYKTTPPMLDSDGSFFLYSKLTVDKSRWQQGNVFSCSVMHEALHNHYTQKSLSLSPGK

[11] = target: T11, Variant 50237847-Ig (human, UniProt P01859-1 99-326 = IgG part); assay: BIACORE SPR
T11 construct: domain: Fc; also called Parent 3
T11 sequence (P01859 other isoform, or with tags, fused parts or gaps mutant limits assumed): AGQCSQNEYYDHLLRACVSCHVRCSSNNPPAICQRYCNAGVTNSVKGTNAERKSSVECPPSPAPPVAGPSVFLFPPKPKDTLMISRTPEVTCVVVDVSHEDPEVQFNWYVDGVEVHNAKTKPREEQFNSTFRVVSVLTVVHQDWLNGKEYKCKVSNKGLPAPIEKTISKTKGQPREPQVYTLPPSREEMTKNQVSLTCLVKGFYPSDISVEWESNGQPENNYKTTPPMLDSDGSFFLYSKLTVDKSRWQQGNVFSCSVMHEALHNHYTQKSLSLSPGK

[12] = target: T12, Variant 50237854-Ig (human, UniProt P01859-1 99-326 = IgG part); assay: BIACORE SPR
T12 construct: domain: Fc; also called Parent 4

[13] = target: T13, Variant 50239698-Ig (human, UniProt P01859-1 99-326 = IgG part); assay: BIACORE SPR
T13 construct: domain: Fc; also called Parent 5
T13 sequence (P01859 other isoform, or with tags, fused parts or gaps mutant limits assumed): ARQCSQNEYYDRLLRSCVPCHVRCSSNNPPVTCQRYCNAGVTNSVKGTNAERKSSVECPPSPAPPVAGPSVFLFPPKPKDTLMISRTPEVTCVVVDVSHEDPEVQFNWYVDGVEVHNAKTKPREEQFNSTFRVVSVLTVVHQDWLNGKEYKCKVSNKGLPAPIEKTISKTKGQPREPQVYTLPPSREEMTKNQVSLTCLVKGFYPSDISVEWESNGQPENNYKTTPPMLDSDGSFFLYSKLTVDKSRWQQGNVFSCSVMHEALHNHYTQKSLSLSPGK

[14] = target: T14, Variant 50234224-Ig (human, UniProt P01859-1 99-326 = IgG part); assay: BIACORE SPR
T14 construct: domain: Fc; also called Parent 6
T14 sequence (P01859 other isoform, or with tags, fused parts or gaps mutant limits assumed): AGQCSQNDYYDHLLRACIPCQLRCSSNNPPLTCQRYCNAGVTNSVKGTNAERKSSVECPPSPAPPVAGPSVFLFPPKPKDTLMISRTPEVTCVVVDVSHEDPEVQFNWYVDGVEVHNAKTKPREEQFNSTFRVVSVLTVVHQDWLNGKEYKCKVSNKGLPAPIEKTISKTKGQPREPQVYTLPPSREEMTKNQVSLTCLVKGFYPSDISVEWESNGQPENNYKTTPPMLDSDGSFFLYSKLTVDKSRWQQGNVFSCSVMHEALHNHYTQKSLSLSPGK

[15] = target: T15, Variant 50237844-Ig (human, UniProt P01859-1 99-326 = IgG part); assay: BIACORE SPR
T15 construct: domain: Fc; also called Parent 7
T15 sequence (P01859 other isoform, or with tags, fused parts or gaps mutant limits assumed): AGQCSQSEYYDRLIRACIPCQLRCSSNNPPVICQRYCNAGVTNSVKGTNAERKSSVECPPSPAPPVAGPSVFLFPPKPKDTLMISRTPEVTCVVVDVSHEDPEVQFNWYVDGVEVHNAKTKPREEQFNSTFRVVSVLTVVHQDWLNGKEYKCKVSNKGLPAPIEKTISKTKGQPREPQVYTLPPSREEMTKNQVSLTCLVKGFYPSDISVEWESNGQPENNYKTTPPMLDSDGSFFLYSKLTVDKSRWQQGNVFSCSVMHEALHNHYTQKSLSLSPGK

[16] = target: T16, Variant 50238504R-Ig (human, UniProt P01859-1 99-326 = IgG part); assay: BIACORE SPR
T16 construct: domain: Fc; also called Parent 8
T16 sequence (P01859 other isoform, or with tags, fused parts or gaps mutant limits assumed): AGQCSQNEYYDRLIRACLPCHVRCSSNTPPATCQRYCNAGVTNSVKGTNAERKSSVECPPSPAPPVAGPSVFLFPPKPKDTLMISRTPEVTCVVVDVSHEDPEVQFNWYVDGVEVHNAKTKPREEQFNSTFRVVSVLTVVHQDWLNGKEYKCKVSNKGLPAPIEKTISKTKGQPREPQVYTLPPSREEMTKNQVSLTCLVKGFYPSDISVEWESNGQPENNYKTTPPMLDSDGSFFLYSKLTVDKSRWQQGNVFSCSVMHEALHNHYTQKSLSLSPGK

[17] = target: T9, Variant 50238475-Ig; assay: BIACORE SPR; remark: listed apart in the source
[18] = target: T17, Variant 50239040-Ig (human, UniProt P01859-1 99-326 = IgG part); assay: BIACORE SPR
T17 construct: domain: Fc; also called Parent 10
T17 sequence (P01859 other isoform, or with tags, fused parts or gaps mutant limits assumed): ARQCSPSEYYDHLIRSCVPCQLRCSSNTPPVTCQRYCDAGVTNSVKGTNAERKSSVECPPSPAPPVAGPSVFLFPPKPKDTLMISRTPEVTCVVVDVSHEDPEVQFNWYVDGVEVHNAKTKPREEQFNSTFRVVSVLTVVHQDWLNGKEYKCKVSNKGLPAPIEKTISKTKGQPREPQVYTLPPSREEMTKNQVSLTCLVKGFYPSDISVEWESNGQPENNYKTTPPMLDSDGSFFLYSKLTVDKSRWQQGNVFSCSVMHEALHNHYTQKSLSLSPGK

[19] = target: T18, Variant 50238494-Ig (human, UniProt P01859-1 99-326 = IgG part); assay: BIACORE SPR
T18 construct: domain: Fc; also called Parent 11

[20] = target: T19, Variant 50239978-Ig (human, UniProt P01859-1 99-326 = IgG part); assay: BIACORE SPR
T19 construct: domain: Fc; also called Parent 12

[21] = target: T20, Variant 50238779-Ig (human, UniProt P01859-1 99-326 = IgG part); assay: BIACORE SPR
T20 construct: domain: Fc; also called Parent 1
T20 sequence (P01859 other isoform, or with tags, fused parts or gaps mutant limits assumed): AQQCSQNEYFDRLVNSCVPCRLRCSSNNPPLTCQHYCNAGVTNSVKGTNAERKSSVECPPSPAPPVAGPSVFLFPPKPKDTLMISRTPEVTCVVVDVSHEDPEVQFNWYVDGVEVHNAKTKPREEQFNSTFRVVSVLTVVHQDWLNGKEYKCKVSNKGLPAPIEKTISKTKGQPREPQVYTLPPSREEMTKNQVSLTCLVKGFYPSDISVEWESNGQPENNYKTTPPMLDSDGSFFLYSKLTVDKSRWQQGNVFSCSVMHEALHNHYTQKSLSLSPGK

[22] = target: T5, Variant BAv8-10-Ig; assay: BIACORE SPR; remark: listed apart in the source
Description: For human BAFF, cynomolgus monkey APRIL, and mouse APRIL measurements, mouse monoclonal antibody (IgG1) anti-FLAG M2 (Sigma Aldrich, Cat. No. F1804) was immobilized on CM3 sensor chips (GE Healthcare, Cat. No. BR-1005-41) according to the manufacturer's protocol. Antibody was diluted to 30 μg/ml in immobilization buffer (10 mM pH 5±0.20; GE Healthcare; GE Healthcare, Catalog No. BR-1003-51). […] Unreacted sites were quenched with 35 μl of 1M ethanolamine-HCl, pH 8.5 (GE Healthcare, GE Healthcare, Cat. No. BR-1000-50). This procedure typically yielded 3,000-4,000 response units (RU) of coupled antibody.
The fusion polypeptides were diluted in HBS-EP buffer and flowed over ligand-coated sensor chips. The variant BCMA-Ig and surrogate control fusion proteins were injected at three concentrations (1.5 nM, 15 nM, and 150 nM at 30 μl/min for 2 minutes per association phase) in a single binding cycle, followed by a 20 minute incubation with HBS-EP buffer containing no protein at the same flow rate. A similar protocol was followed for Z-TACI-Ig, except that the injections were at 4.5 nM, 45 nM, and 450 nM.
Using available information from the structures and published literature, several residues in BAv8-10 were targeted for substitution with conserved as well as non-conserved residues and their effect on BAFF and APRIL binding was assessed by BIACORE.

[23] = target: T2, Variant BAv1-12-Ig; assay: KinExA
[24] = target: T3, Variant BAv3-10-Ig; assay: KinExA
[25] = target: T4, Variant BAv8-9-Ig; assay: KinExA
[26] = target: T5, Variant BAv8-10-Ig; assay: KinExA
[27] = target: T6, Variant BAv9-1-Ig; assay: KinExA
[28] = target: T21, Variant 9-3-Ig (human, UniProt P01859-1 99-326 = IgG part); assay: KinExA
T21 construct: domain: Fc; also called BAv9-3

[29] = target: T7, Variant BAv9-5-Ig; assay: KinExA
[30] = target: T8, Variant BAv11-6-Ig; assay: KinExA
[31] = target: T6, Variant BAv9-1-Ig; assay: KinExA; remark: listed apart in the source
Description: Equilibrium measurements were performed using FLAG-tagged, recombinant huBAFF and huAPRIL ligands. Fixed ligand concentrations of human BAFF or human APRIL were incubated with serial dilutions of the variant BCMA ECD-Ig fusion polypeptides, and free ligand was detected in a KINEXA 3200 Instrument. variant BCMA ECD-Ig fusion polypeptides were first diluted in equilibration buffer (1×PBS, pH 7.4, 1 mg/ml BSA) to a range of concentrations from 10 nM to 100 fM. The linear portion of the dilution series was typically 2-fold. Ligands were diluted in equilibration buffer to fixed concentrations ranging from 5 to 20 pM and then incubated with the variant BCMA-Ig dilutions in total reaction volumes ranging from 4.5 to 15 ml. Samples were incubated at room temperature for 48-72 hours to reach equilibrium. For each data point, a fresh column of 850 μl of bead slurry coated with Variant BAv-238475-Ig was introduced into the KINEXA flow cell. Equilibrated samples ranging from 1 to 5 ml reaction volume were injected at a flow rate of 0.25 ml/min. […] The DyLight 649 fluorescent signal was detected using the red filter set (620/30 nanometer excitation filter, 670/40 nanometer emission filter, 645 nanometer dichroic filter) on the KinExA instrument and converted to a voltage signal that was directly proportional to the concentration of free ligand in the equilibrated sample.
The various fusion proteins described above were expressed and purified as described previously (Examples 2 and 3 for the CET1019AS based plasmids and Examples 7 and 8 for the pcDNA based plasmids). […] The BAv9-1-Ig Fc proteins typically exist in solution as a dimeric fusion protein. The purified fusion proteins were assayed for binding activity using BIACORE (Example 9) and KINEXA (Example 11) assays.

T1 sequence (P01859 other isoform, or with tags, fused parts or gaps limits assumed): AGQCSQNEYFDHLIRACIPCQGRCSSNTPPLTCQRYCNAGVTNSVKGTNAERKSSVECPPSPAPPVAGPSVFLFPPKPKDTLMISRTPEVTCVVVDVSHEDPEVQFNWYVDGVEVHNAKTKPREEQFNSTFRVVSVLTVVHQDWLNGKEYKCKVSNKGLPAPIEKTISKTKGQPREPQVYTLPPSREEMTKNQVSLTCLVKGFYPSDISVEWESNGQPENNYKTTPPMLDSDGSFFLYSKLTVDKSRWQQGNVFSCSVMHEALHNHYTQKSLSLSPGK

B1: FLAG-tagged cynomolgous APRIL (ligand, not shown: small tags and cut ends)
chain: KQKKQHSVLHLVPINATSKDDSDVTEVMWQPALRRGRGLQAQGYGVRIRDAGVYLLYSQVLFQDVTFTMGQVVSREGQGKQETLFRCIRSMPSHPDRAYNSCYSAGVFHLHQGDILSVIIPRARAKLNLSPHGTFLGFVKL
notes: FLAG-tagged, expressed with TPA signal peptide; also called cyAPRIL
Q: What does the source list for B1?
A: Kd [1]: 62600 pM; Kd [2]: 10.1 pM; Kd [3]: 13.9 pM; Kd [4]: 22.6 pM; Kd [5]: 53.9 pM; Kd [6]: 21.4 pM; Kd [7]: 28.4 pM; Kd [8]: 24.4 pM; Kd [9]: 78.9 pM; Kd [10]: 23 pM; Kd [11]: 37 pM; Kd [12]: 59 pM; Kd [13]: 17 pM; Kd [14]: 39 pM; Kd [15]: 28 pM; Kd [16]: 72 pM; Kd [17]: 42 pM; Kd [18]: 54 pM; Kd [19]: 12 pM; Kd [20]: 24 pM; Kd [21]: 28 pM; Kd [22]: 76 pM

B2: FLAG-tagged recombinant human APRIL (ligand)
chain: AVLTQKQKKQHSVLHLVPINATSKDDSDVTEVMWQPALRRGRGLQAQGYGVRIQDAGVYLLYSQVLFQDVTFTMGQVVSREGQGRQETLFRCIRSMPSHPDRAYNSCYSAGVFHLHQGDILSVIIPRARAKLNLSPHGTFLGFVKL
notes: KINEXA ligand; also called huAPRIL
Q: How did the Kd [23] turn out when B2 was run?
A: The Kd was 0.275 pM.

Q: What about the Kd [24] of the same binder?
A: Its Kd is 0.337 pM.

Q: And the Kd [25]?
A: The Kd was 0.0224 pM.

Q: And the Kd [26]?
A: The Kd was 3.23 pM.

Q: And the Kd [27]?
A: Its Kd is 0.198 pM.

Q: What about the Kd [28] of the same binder?
A: Its Kd is 18.9 pM.

Q: And the Kd [29]?
A: The Kd was 1.64 pM.

Q: And the Kd [30]?
A: The Kd was 1.63 pM.

Q: And the Kd [31]?
A: Its Kd is 0.198 pM.
